In the supplement of paper PMC10126150:
± gives the standard deviation of the averaged measurements.

Tested on: ATP
Assay: switch fluorescence ratio, 500 uM ATP over buffer (Cy3 cluster intensity, sum of 5 cycles each) (fold (ratio)); higher = stronger signal-on switching upon ATP binding; sequences stand for … in TCGTCGGCAGCGTCAGATGTGTATAAGAGACAGTTTTTTTTTTTTTTTTTTTTTTTTT…TC
Conditions: aptamer strand: ATP DNA aptamer (quencher-CACCTGGGGGAGTATTGCGGAGGAAGG + anchor), 100 nM annealed; ATP concentration: 500 uM
How it was run: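 Between each of five buffer/ATP cycles, the flow-cell was stripped with NaOH and re-annealed. Each cycle imaged Cy3-labelled switching-strand clusters, annealed to 100 nM quencher-labelled ATP aptamer on a modified Illumina MiSeq flow-cell, first in selection buffer and then after 15 min with 500 uM ATP at 22 °C. The fluorescence ratio is summed target-cycle over summed buffer-cycle Cy3 intensity per cluster, averaged per switch-domain sequence, with clusters outside 100-1000 RFU excluded.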
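Further: ATP exposure 15 min at 22 °C before imaging.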

With CGTTTCCTTT the switch fluorescence ratio was 0.993 ± 0.024.

For CGTTTCTGGG, the switch fluorescence ratio was 1.007 ± 0.0015.

In the case of CGTTTGAAAA, the switch fluorescence ratio is reported as 1.019 ± 0.0058.

In the case of CGTTTGAATA, the switch fluorescence ratio is reported as 0.974 ± 0.052.

CGTTTGATGC gave a switch fluorescence ratio of 1.018 ± 0.0033.

In the case of CGTTTGCCGT, the switch fluorescence ratio is reported as 0.985 ± 0.024.

CGTTTGGAGG gave a switch fluorescence ratio of 1.03 ± 0.016.

In the case of CGTTTGGCCC, the switch fluorescence ratio is reported as 0.988 ± 0.044.

CGTTTGGGCT was tested, and the switch fluorescence ratio was 1.023 ± 0.0037.

CGTTTGTCCT showed a switch fluorescence ratio of 0.9907 ± 0.0036.

In the case of CGTTTTATCA, the switch fluorescence ratio is reported as 0.9914 ± 0.0074.

With CGTTTTGGGT the switch fluorescence ratio was 1.01 ± 0.033.

Work on CGTTTTGGTG yielded a switch fluorescence ratio of 0.9914 ± 0.0052.

In the case of CGTTTTTACT, the switch fluorescence ratio is reported as 0.99 ± 0.052.

CGTTTTTATG showed a switch fluorescence ratio of 1.03 ± 0.04.

CGTTTTTCTT showed a switch fluorescence ratio of 0.958 ± 0.05.

Work on CGTTTTTGAT yielded a switch fluorescence ratio of 0.981 ± 0.04.

CGTTTTTGTA was tested, and the switch fluorescence ratio was 0.99 ± 0.015.

CTAAAAAATT was tested, and the switch fluorescence ratio was 1.01 ± 0.022.

CTAAAAACTA gave a switch fluorescence ratio of 0.978 ± 0.013.

CTAAAAGGCG gave a switch fluorescence ratio of 1.06 ± 0.04.

CTAAACAGGG was tested, and the switch fluorescence ratio was 1.03 ± 0.011.

CTAAAGAAAG showed a switch fluorescence ratio of 0.989 ± 0.013.

In the case of CTAAAGAGCA, the switch fluorescence ratio is reported as 1.03 ± 0.073.

With CTAAATGTTT the switch fluorescence ratio was 1 ± 0.05.

Sequence CTAAATTTAG has a switch fluorescence ratio of 0.995 ± 0.023.

For CTAACAATAA, the switch fluorescence ratio was 1.05 ± 0.081.

CTAACTGGCA showed a switch fluorescence ratio of 1.048 ± 0.009.

CTAACTGTTA gave a switch fluorescence ratio of 0.99 ± 0.015.

CTAAGAAGGG gave a switch fluorescence ratio of 1.05 ± 0.061.

Sequence CTAAGAGCGC has a switch fluorescence ratio of 1.08 ± 0.064.

CTAAGAGGGC was tested, and the switch fluorescence ratio was 1.0235 ± 0.00018.

CTAAGCGGCG showed a switch fluorescence ratio of 0.999 ± 0.026.

Work on CTAAGGGGGG yielded a switch fluorescence ratio of 1.04 ± 0.033.

With CTAAGGGGTT the switch fluorescence ratio was 0.991 ± 0.036.

In the case of CTAAGTAGCC, the switch fluorescence ratio is reported as 1.01 ± 0.015.

With CTAAGTTTGG the switch fluorescence ratio was 1.018 ± 0.0037.

Sequence CTAATAGTTA has a switch fluorescence ratio of 0.972 ± 0.0099.

CTAATCCACT was tested, and the switch fluorescence ratio was 1.028 ± 0.004.

CTAATCGGTC gave a switch fluorescence ratio of 0.874 ± 0.029.

In the case of CTAATGAGTT, the switch fluorescence ratio is reported as 0.999 ± 0.03.

For CTAATGATGG, the switch fluorescence ratio was 1.01 ± 0.056.

For CTAATGTGTC, the switch fluorescence ratio was 1.02 ± 0.088.

Work on CTAATTGAAC yielded a switch fluorescence ratio of 1.009 ± 0.0032.

In the case of CTAATTTACG, the switch fluorescence ratio is reported as 1.06 ± 0.028.

With CTAATTTGGT the switch fluorescence ratio was 1.01 ± 0.016.

Work on CTACGAGGTA yielded a switch fluorescence ratio of 1.045 ± 0.0027.

CTACGCCTGG was tested, and the switch fluorescence ratio was 1.66 ± 0.044.

For CTACGGAGGG, the switch fluorescence ratio was 1.06 ± 0.023.

CTACGTAATG gave a switch fluorescence ratio of 3.16 ± 0.27.

CTACTACTGA gave a switch fluorescence ratio of 1.08 ± 0.015.

Sequence CTAGAAAGTT has a switch fluorescence ratio of 0.9778 ± 0.0029.

For CTAGATATGT, the switch fluorescence ratio was 0.99 ± 0.011.

Work on CTAGATTCGC yielded a switch fluorescence ratio of 0.984 ± 0.025.

In the case of CTAGATTGGG, the switch fluorescence ratio is reported as 1.015 ± 0.0043.

For CTAGCATGAT, the switch fluorescence ratio was 1.03 ± 0.061.

Sequence CTAGCCATTG has a switch fluorescence ratio of 0.995 ± 0.022.

For CTAGGCTAAT, the switch fluorescence ratio was 1.014 ± 0.01.

In the case of CTAGGGCGCC, the switch fluorescence ratio is reported as 0.975 ± 0.012.

Work on CTAGGGGGCG yielded a switch fluorescence ratio of 0.992 ± 0.058.

With CTAGGGGGGG the switch fluorescence ratio was 0.988 ± 0.021.

With CTAGGGGTAC the switch fluorescence ratio was 1.16 ± 0.17.

For CTAGGTATAG, the switch fluorescence ratio was 1.006 ± 0.0072.

For CTAGGTCGGA, the switch fluorescence ratio was 1.01 ± 0.021.

Work on CTAGGTGACG yielded a switch fluorescence ratio of 1.004 ± 0.0075.

CTAGGTGTGT gave a switch fluorescence ratio of 1.02 ± 0.051.

With CTAGGTTAAA the switch fluorescence ratio was 0.988 ± 0.023.

CTAGGTTGCA gave a switch fluorescence ratio of 0.9871 ± 0.0052.

CTAGGTTTGG showed a switch fluorescence ratio of 1.02 ± 0.033.

For CTAGTCAATC, the switch fluorescence ratio was 1.7 ± 0.072.

Sequence CTAGTGAGTG has a switch fluorescence ratio of 0.984 ± 0.036.

With CTAGTTAAGG the switch fluorescence ratio was 1.011 ± 0.0048.

For CTAGTTAGGG, the switch fluorescence ratio was 0.964 ± 0.02.

CTAGTTTTTA showed a switch fluorescence ratio of 1.009 ± 0.007.

With CTATACTTGA the switch fluorescence ratio was 0.999 ± 0.031.

CTATCAACCG showed a switch fluorescence ratio of 1.04 ± 0.022.

CTATCCATGG showed a switch fluorescence ratio of 0.993 ± 0.017.

Sequence CTATCTCTTG has a switch fluorescence ratio of 1 ± 0.017.

Sequence CTATGACGTT has a switch fluorescence ratio of 0.998 ± 0.019.

CTATGATATT gave a switch fluorescence ratio of 0.947 ± 0.042.

For CTATGATTCG, the switch fluorescence ratio was 1.01 ± 0.023.

With CTATGATTTA the switch fluorescence ratio was 0.975 ± 0.027.

For CTATGGGCCG, the switch fluorescence ratio was 0.972 ± 0.028.

For CTATGTAGTC, the switch fluorescence ratio was 1.01 ± 0.019.

In the case of CTATGTGGAG, the switch fluorescence ratio is reported as 0.975 ± 0.033.

Sequence CTATGTGTGG has a switch fluorescence ratio of 0.976 ± 0.021.

CTATTAGGGC showed a switch fluorescence ratio of 1.04 ± 0.0026.

CTATTGGGAT gave a switch fluorescence ratio of 0.98078 ± 0.00046.

CTATTGGTTA showed a switch fluorescence ratio of 1.01 ± 0.011.

CTCAAAGTCT showed a switch fluorescence ratio of 1.02 ± 0.012.

With CTCAACACCT the switch fluorescence ratio was 1.35 ± 0.048.

With CTCAATAGGG the switch fluorescence ratio was 1.01 ± 0.038.

Work on CTCAATTATG yielded a switch fluorescence ratio of 0.972 ± 0.043.

With CTCACATTGA the switch fluorescence ratio was 1.05 ± 0.025.

CTCAGGTATC gave a switch fluorescence ratio of 1.11 ± 0.012.

With CTCAGTATTT the switch fluorescence ratio was 1.01 ± 0.018.

CTCAGTGGTA showed a switch fluorescence ratio of 1.014 ± 0.0043.

CTCATAGCGG gave a switch fluorescence ratio of 1.02 ± 0.029.

Sequence CTCATAGTAG has a switch fluorescence ratio of 0.988 ± 0.016.

CTCATCGGGC showed a switch fluorescence ratio of 1.06 ± 0.032.
